B1: anti-PLD4 mouse 13H11 antibody (antibody, mouse IgG2b, V domains shown)
VH: DVQLQESGPGLVKPSQSLSLTCSVTGYSISSHYYWSWIRQFPGNRLEWMGYISYDGSNNYNPSLKNRISITRDTSKNQFFLKLNSVTTEDTATYNCAREGPLYYGNPYWYFDVWGAGTTVTVSS
VL: DIQMTQTTSSLSASLGGSVTISCRASQDIDNYLNWYQQKPDGTVKLLIYYTSRLHSGVPSRFSGSGSGTDYSLTISNLEQEDIATYFCQQFNTLPRTFGGGTKLEIKR
notes: Tested as hybridoma culture supernatant and as purified antibody; also called mp13H11 (hybridoma)
B2: anti-PLD4 mouse 5B7 antibody (antibody, V domains shown)
VH: EVQLQQSGPELVKPGASVKISCKASGYTFTDYNLHWVKQSHGKSLEWIGYIYPYNGNTGYNQKFKRKATLTVDNSSGTVYMELRSLTSEDSAVYYCARGGIYDDYYDYAIDYWGQGTSVTVSS
VL: DIQMTQSPASLSVSVGETVAITCRASENIYSHIAWYQQKEGKSPQRLVYGATNLAHGVPSRFSGSGSGTQYSLKINSLQSEDFGSYYCQHFWGTPWTFGGGTKLEIKR
notes: Tested as hybridoma culture supernatant and as protein A purified antibody; also called mp5B7 (hybridoma)
B3: anti-PLD4 mouse 11G9.6 antibody (antibody, V domains shown)
VH: QVQLQQPGAELVKPGTSVKMSCKASGYTFTSYWMHWVKQRPGQGLEWIGDIYPGSDSTNYNEKFKSKATLTVDTSSSTAYMQLSSLTSEDSAVYYCARGGWLDAMDYWGQGTSVTVSS
VL: DIQMTQTTSSLSASLGDRVTISCRASQDISNYLNWYQQKPDGTVKLLIYYTSRLHSGVPSRFSGSGSGTDYSLTISNLEQEDIATYFCQQGNTLPWTFGGGTKLEIKR
notes: Tested as hybridoma culture supernatant and as purified antibody; also called mp11G9.6; mp11G9.6 antibody
B4: anti-PLD4 mouse 7B4 antibody (antibody, mouse IgG2b, V domains shown)
VH: EVQLQQSGPELVKPGASVKISCKASGYTFTDYNLHWVKQSHGKSLEWIGYIYPYNGNTGYNQKFKRKATLTVDNSSGTVYMELRSLTSEDSAVYYCARGGIYDDYYDYAIDYWGQGTSVTVSS
VL: DIQMTQSPASLSVSVGETVAITCRASENIYSHIAWYQQKEGKSPQRLVYGATNLAHGVPSRFSGSGSGTQYSLKINSLQSEDFGSYYCQHFWGTPWTFGGGTKLEIKR
notes: Tested as hybridoma culture supernatant and as purified antibody; also called mp7B4 (hybridoma)
B5: anti-PLD4 mouse 14C1 antibody (antibody, mouse IgG1, V domains shown)
VH: DVQLQESGPGLVKPSQSLSLTCSVTGYSISSHYYWSWIRQFPGNRLEWMGYISYDGSNNYNPSLKNRISITRDTSKNQFFLKLNSVTTEDTATYNCAREGPLYYGNPYWYFDVWGAGTTVTVSS
VL: DIQMTQTTSSLSASLGGSVTISCRASQDIDNYLNWYQQKPDGTVKLLIYYTSRLHSGVPSRFSGSGSGTDYSLTISNLEQEDIATYFCQQFNTLPRTFGGGTKLEIKR
notes: Tested as hybridoma culture supernatant and as purified antibody
B6: anti-PLD4 mouse 13D4 antibody (antibody, mouse IgG2b, V domains shown)
VH: DVQLQESGPGLVKPSQSLSLTCSVTGYSITSHYYWTWIRQFPGNKLEWMGYISYDGSNNYNPSLKNRISITRDTSKNQFFLKLNSVTTEDTATYNCAREGPLYYGNPYWYFDVWGAGTTVTVSS
VL: DIQMTQTTSSLSASLGDRVTISCRASQDIDNYLNWYQQKPDGTVKLLIYYTSRLHSGVPSRFSGSGSGTDYSLTISNLEQEDVATYFCQQFNTLPRTFGGGTKLEIKR
notes: Tested as hybridoma culture supernatant and as purified antibody; also called mp13D4 (hybridoma)
B7: anti-PLD4 chimeric 11G9 antibody (antibody, human IgG1, kappa, V domains shown)
VH: QVQLQQPGAELVKPGTSVKMSCKASGYTFTSYWMHWVKQRPGQGLEWIGDIYPGSDSTNYNEKFKSKATLTVDTSSSTAYMQLSSLTSEDSAVYYCARGGWLDAMDYWGQGTSVTVSS
VL: DIQMTQTTSSLSASLGDRVTISCRASQDISNYLNWYQQKPDGTVKLLIYYTSRLHSGVPSRFSGSGSGTDYSLTISNLEQEDIATYFCQQGNTLPWTFGGGTKLEIKR
notes: Mouse 11G9.6 variable regions on human IgG1 heavy and human Ig kappa light constant regions; also called ch11G9.6; ch11G9.6 antibody

Experiments:
[1] = molecular target: T1, human PLD4 (phospholipase D4) protein (UniProt Q96BZ4 1-506); experiment: binding to human PLD4-CT125 stable cells; apparent Kd
T1 chain: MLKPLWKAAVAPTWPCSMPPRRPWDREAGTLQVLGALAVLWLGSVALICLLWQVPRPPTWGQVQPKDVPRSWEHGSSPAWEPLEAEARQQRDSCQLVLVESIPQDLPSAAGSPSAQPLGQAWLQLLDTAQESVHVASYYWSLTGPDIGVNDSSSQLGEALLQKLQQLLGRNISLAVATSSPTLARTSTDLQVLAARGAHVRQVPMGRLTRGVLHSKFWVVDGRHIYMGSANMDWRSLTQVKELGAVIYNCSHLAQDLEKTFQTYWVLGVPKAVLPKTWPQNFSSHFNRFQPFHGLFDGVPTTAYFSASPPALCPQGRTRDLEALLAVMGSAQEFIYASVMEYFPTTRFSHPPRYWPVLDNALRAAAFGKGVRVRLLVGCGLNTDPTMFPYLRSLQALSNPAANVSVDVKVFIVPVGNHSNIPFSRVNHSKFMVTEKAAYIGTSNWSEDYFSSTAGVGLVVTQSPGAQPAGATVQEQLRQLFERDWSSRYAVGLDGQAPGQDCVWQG

rhesus monkey PLD4 = molecular target: T2, rhesus monkey PLD4 (rhesus monkey, UniProt Q96BZ4 1-506 (human entry)); experiment: FACS on rhesus monkey PBMC, pDC population (FIG. 18-1, 18-2)
T2 construct: also called rhesus monkey PLD4 protein
T2 chain: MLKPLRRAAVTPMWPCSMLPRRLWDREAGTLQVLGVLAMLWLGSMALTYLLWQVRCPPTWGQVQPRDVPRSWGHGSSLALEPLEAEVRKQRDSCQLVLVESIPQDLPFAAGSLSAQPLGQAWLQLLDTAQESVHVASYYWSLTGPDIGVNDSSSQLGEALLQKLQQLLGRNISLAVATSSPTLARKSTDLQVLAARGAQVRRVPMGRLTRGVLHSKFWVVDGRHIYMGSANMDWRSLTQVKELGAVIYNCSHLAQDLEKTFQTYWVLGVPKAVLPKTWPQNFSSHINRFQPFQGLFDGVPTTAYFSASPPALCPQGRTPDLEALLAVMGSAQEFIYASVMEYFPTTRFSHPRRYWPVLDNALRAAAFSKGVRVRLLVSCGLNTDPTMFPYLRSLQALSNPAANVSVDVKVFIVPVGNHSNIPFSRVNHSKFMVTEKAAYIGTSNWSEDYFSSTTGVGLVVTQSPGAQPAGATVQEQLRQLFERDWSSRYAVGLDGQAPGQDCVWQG
Experimental: PBMC of rhesus monkey from the peripheral blood (10 mL; SHIN NIPPON BIOMEDICAL LABORATORIES, LTD.), was centrifuged with specific gravity using 96% Ficoll-Paque (trademark) PLUS (GE Healthcare company, Cat No. 17-1440-02). For FACS, 5×10⁵ of cells were used per sample. The cells were washed with FACS buffer cell, and then added with 10 μL of 10% cynomolgus monkey serum diluted with FACS buffer, and reacted at 4° C. for 20 minutes. The cells were washed with FACS buffer, and then added with 100 μL of the cell culture supernatant of each hybridoma and 10 μg/mL of mouse IgG2a, κ or mouse IgG1, κ, and reacted at 4° C. for 15 minutes. The cells were washed with FACS buffer, and then added with 1 μg/mL of APC-labeled anti-mouse IgG antibody, and reacted at 4° C. for 20 minutes. The cells were washed with FACS buffer, and then reacted with 25 μL of 10 fold dilution of FITC-labeled anti-Lineage 1 antibody, PE-labeled anti-CD123 antibody, and PcrCP-Cy5.5-labeled anti-HLA-DR antibody at 4° C. for 15 minutes. The cells were washed with FACS buffer, and then resuspended in 300 μL of FACS buffer, and analyzed with FACS calibur. The used hybridoma culture supernatant was specific to PLD4, and 10 kinds of 3B4, 5B7, 7B4, 8C11, 10C3, 11D10, 13D4, 13H11, 14C1, and 11G9.6, which bound well to CAL-1 cell or human pDC, were selected. As a result thereof, 5 kinds of the hybridoma cell culture supernatants, i.e., 5B7, 7B4, 13D4, 13H11, and 14C1 specifically bound to pDC cell population of cynomolgus monkey (Lineage-CD123+HLA-DR+) (FIG. 18).

[2] = molecular target: T3, human PLD4 (phospholipase D4) protein (human, UniProt Q96BZ4 1-506); experiment: FACS titration (0.001 to 30 µg/mL) of purified antibody on human PLD4-CT125 cells, positive cell frequency fitted with GraphPad Prism (FIG. 19)
T3 construct: Type II transmembrane protein, 506 a.a; also called hPLD4; HuPLD4
T3 sequence: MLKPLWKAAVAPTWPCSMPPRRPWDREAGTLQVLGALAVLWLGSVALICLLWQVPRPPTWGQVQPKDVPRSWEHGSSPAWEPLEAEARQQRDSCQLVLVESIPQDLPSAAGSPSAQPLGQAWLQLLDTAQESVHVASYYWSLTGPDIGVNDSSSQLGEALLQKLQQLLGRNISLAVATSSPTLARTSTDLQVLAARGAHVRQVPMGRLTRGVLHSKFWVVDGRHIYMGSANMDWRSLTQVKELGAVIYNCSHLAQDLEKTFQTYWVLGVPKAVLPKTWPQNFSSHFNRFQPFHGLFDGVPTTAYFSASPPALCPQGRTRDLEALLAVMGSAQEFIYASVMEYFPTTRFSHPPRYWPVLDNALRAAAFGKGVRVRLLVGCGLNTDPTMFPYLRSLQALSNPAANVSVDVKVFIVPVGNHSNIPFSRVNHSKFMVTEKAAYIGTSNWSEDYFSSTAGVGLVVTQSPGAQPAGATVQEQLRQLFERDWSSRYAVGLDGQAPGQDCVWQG
Experimental: For binding ability of the purified antibody, human PLD4-CT125 expression stable cell strain was reacted to nearly 100% of the positive staining rate at low concentration to high concentration (0.001 μg/mL to 30 μg/mL) of purified PLD4 antibody concentration. The frequency of staining positive cell and the antibody were data-analyzed using Graph Pad Prism version 5 software, and the dissociation constant molar concentration (Kd value) was computed in nM unit.

cynomolgus monkey PLD4 [3] = molecular target: T4, cynomolgus monkey PLD4 (cynomolgus monkey, UniProt Q96BZ4 1-506 (human entry)); experiment: FACS on cynomolgus monkey PLD4-CT125 cells (FIG. 16)
T4 construct: also called cynomolgus monkey PLD4 protein; cyno PLD4
T4 chain: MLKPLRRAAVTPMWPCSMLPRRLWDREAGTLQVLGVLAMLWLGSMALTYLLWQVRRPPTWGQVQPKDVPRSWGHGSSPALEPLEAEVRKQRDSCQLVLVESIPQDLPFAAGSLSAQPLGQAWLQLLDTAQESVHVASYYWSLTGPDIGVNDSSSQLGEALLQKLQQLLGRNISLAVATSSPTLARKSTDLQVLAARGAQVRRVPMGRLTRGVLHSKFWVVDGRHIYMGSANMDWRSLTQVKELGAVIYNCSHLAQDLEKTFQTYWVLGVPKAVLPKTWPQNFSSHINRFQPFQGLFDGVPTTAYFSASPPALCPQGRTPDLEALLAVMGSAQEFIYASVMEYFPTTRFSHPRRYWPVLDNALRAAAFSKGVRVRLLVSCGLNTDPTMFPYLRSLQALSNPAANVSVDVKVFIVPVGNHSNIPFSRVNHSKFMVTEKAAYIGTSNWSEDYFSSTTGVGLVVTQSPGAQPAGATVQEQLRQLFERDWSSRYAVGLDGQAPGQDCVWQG

human PLD5 = molecular target: T5, human PLD5 (human, UniProt Q8N7P1 92-536); experiment: FACS on 293T transfectants (FIG. 8)
T5 sequence: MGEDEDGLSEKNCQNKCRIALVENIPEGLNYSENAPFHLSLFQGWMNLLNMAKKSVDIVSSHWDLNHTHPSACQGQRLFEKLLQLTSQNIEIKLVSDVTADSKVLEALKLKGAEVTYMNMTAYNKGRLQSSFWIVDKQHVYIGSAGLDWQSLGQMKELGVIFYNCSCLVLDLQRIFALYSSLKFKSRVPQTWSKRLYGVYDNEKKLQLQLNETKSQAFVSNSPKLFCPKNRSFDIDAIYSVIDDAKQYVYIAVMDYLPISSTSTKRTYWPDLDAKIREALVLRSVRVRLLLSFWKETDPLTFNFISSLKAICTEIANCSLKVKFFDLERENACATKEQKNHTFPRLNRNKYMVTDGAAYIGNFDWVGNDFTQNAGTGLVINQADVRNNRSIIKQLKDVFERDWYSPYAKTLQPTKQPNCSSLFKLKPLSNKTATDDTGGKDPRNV

human PLD3 = molecular target: T6, human PLD3 (human, UniProt Q8IV08 1-490); experiment: FACS on 293T transfectants (FIG. 8)
T6 construct: also called human PLB3 [sic]
T6 sequence: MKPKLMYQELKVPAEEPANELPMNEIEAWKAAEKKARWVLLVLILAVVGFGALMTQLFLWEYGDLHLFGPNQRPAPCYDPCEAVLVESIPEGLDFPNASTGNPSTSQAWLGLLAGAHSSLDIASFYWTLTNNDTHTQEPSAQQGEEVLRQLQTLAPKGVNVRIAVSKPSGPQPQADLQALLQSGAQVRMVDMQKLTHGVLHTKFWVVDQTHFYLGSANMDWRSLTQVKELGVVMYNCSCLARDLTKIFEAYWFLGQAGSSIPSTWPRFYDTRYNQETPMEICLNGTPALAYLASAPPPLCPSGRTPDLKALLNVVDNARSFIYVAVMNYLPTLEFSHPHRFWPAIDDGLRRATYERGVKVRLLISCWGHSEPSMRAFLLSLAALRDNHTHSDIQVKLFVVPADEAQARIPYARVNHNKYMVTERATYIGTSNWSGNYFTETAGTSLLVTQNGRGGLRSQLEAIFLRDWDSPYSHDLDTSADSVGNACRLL

cynomolgus monkey PLD4 [4] = molecular target: T4, cynomolgus monkey PLD4; experiment: FACS on 293T transfectant (FIG. 9)

Binder | Kd [1] [nM] | binding result (rhesus monkey PLD4) | Kd [2] [nM] | binding result (cynomolgus monkey PLD4 [3]) | binding result (human PLD5) | binding result (human PLD3) | binding result (cynomolgus monkey PLD4 [4])
B1 | 0.057 | binds | ≤ 1 | binds |  |  | 
B2 | 0.056 | binds | ≤ 1 | binds |  |  | 
B3 | 0.058 |  | ≤ 1 |  | no binding | no binding | 
B4 | 0.087 | binds | ≤ 1 | binds |  |  | 
B5 | 3.73 | binds | > 1 | binds |  |  | 
B6 | 0.045 | binds | ≤ 1 | binds |  |  | 
B7 |  |  |  |  | no binding | no binding | binds
